Source: patent US20220387578A1 (VANDERBILT UNIVERSITY, published 2022)
Residue numbers refer to the chain shown, from its start. Read-outs that look alike come from different tables or passages of the source.

T1: eHead_H1Solomon (wild-type H1 head domain monomer) (influenza A virus, UniProt B4URD6 65-276)
T1 chain: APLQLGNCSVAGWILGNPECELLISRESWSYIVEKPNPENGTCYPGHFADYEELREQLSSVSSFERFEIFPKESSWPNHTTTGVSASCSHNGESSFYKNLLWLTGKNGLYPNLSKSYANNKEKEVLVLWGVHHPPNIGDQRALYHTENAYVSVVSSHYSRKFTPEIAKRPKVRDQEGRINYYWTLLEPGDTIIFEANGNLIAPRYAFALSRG

B1: FluA-20-UCA IgG (unmutated common ancestor of FluA-20) (antibody, V domains shown)
VH: QVQLQESGPGLVKPSETLSLTCTVSGGSVSSGSYYWSWIRQPPGKGLEWIGYIYYSGSTNYNPSLKSRVTISVDTSKNQFSLKLSSVTAADTAVYYCARGTEDLGYCSGGSCPNHWGQGTLVTVSS
VL: not shown
B2: FluA20_UCA (as used in the SPR experiments of Example 4) (antibody, V domains shown)
VH: B1 VH
VL: not shown
B3: FluA-20 UCA Fab (Fab, V domains shown)
VH: B1 VH
VL: not shown
B4: rFluA-20 Fab (Fab, V domains shown)
VH: QVQLQESGPGLVKPSETLSLTCSVSGVSVTSDIYYWTWIRQPPGKGLEWIGYIFYNGDTNYNPSLKSRVTMSIDTSKNEFSLRLTSVTAADTAVYFCARGTEDLGYCSSGSCPNHWGQGTLVTVSS
VL: DIQMTQSPSSLSASIGDRVTITCRPSQNIRSFLNWFQHKPGKAPKLLIYAASNLQSGVPSRFSGSGSGTEFTLTIRSLQPEDFATYYCQQSYNTPPTFGQGTKVEIK
B5: mAb H5.31 (hybridoma IgG) (antibody, V domains shown)
VH: EVQLVQSGGGLVQPGGSLRLSCEASRFTSSSYWITWVRQAPGKGLEWVANIKQDGSEKYFVDSVKGRFTISRDNASNSLYLQMSSLRAEDTAVYYCARGFLERLLLGRQGAYYYGMDVWGQGTTVTVSS
VL: DIQMTQSPSSLSASVGDRVTMTCRASQSISSSLNWYQQKPGKAPKLLIYAASNLQSGVPSRFSGSGSGTDFTLTISSLQPEDFATYYCQQSYTMPPELTFGGGTKVQIK
B6: mAb H5.28 (hybridoma IgG) (antibody, V domains shown)
VH: EVQLVESGGGLVQPGGSLRLSCAASGFTFSTYWMTWVRQAPGKGLEWVANINQDGGEKYFVDSVKGRFTISRDNAKNSLFLQMNTLRAEDTAVYYCARGFLERLLLGRQGAYYYGMDVWGQGTTVTVSS
VL: B5 VL with T20S, S28I, T93S, M94T, Q107E

How the values were obtained:
[1] = biological target: T2, H3 HA A/Hong Kong/1/1968 (H3N2), recombinant soluble trimer (influenza A virus, UniProt Q91MA7 17-530); assay: ELISA on coated recombinant HA
[2] = biological target: T3, eHead-H3HK68_v1 (wild-type H3 head domain monomer) (influenza A virus, UniProt Q91MA7 53-335); assay: SPR (Example 4, Table E)
[3] = biological target: T1, eHead_H1Solomon (wild-type H1 head …); assay: SPR (Example 4, Table E)
[4] = biological target: T3, eHead-H3HK68_v1 (wild-type H3 head …); assay: SPR
[5] = biological target: T1, eHead_H1Solomon (wild-type H1 head …); assay: SPR
[6] = biological target: H1 HA A/South Carolina/1/1918 (H1N1) (influenza A virus, UniProt Q9WFX3 18-529); assay: BLI, biotinylated HA on streptavidin sensor
[7] = biological target: T2, H3 HA A/Hong Kong/1/1968 (H3N2), …; assay: BLI, biotinylated HA on streptavidin sensor
[8] = biological target: H5 HA A/Indonesia/05/2005 (H5N1), recombinant (influenza A virus); assay: ELISA on coated recombinant HA
[9] = biological target: T4, H3 HA A/Texas/50/2012, recombinant soluble trimer (influenza A virus); assay: ELISA on coated recombinant HA
T4 construct: extracellular domain

[10] = biological target: H5 HA A/Vietnam/1203/2004 (H5N1), recombinant (influenza A virus); assay: ELISA on coated recombinant HA
[11] = biological target: H7 HA A/New York/107/2003, recombinant (influenza A virus); assay: ELISA on coated recombinant HA
[12] = biological target: H12 HA A/duck/Alberta/60/1976, recombinant (influenza A virus); assay: ELISA on coated recombinant HA
[13] = biological target: A/Turkey/Ontario/6118/1967 (Influenza A virus); assay: ELISA on coated recombinant HA
A/Puerto Rico/8/1934 = A/Puerto Rico/8/1934 (Influenza A virus); assay: ELISA on coated recombinant HA
[14] = biological target: T5, H1 HA A/Texas/36/1991 (H1N1), recombinant soluble trimer (influenza A virus); assay: ELISA on coated recombinant HA
T5 construct: extracellular domain

[15] = biological target: T2, H3 HA A/Hong Kong/1/1968 (H3N2), …; assay: ELISA on coated recombinant HA; remark: listed apart in the source
[16] = biological target: H2 HA A/Singapore/1/1957, recombinant soluble trimer (influenza A virus); assay: ELISA on coated recombinant HA
[17] = biological target: A/Duck/Czechoslovakia/1956 (Influenza A virus); assay: ELISA on coated recombinant HA

Row | Binder | Kd [6] [nM] | EC50 [8] [µg/mL] | EC50 [9] [µg/mL] | EC50 [10] [µg/mL] | EC50 [11] [µg/mL] | EC50 [12] [µg/mL] | EC50 [13] [µg/mL] | EC50 (A/Puerto Rico/8/1934) [µg/mL] | EC50 [14] [µg/mL] | EC50 [15] [µg/mL] | EC50 [16] [µg/mL] | EC50 [17] [µg/mL] | other results
1 | B1 | – | – | – | – | – | – | – | – | – | – | – | – | EC50 [1]: 0.021 µg/mL
2 | B2 | – | – | – | – | – | – | – | – | – | – | – | – | Kd [2]: ~500 nM; Kd [3]: ~500 nM; Kd [4]: 530 nM; Kd [5]: 500 nM
3 | B3 | 937 | – | – | – | – | – | – | – | – | – | – | – | Kd [7]: 486 nM
4 | B4 | 46 | – | – | – | – | – | – | – | – | – | – | – | –
5 | B5 | – | > 2.5 | 0.936 | 0.006 | > 2.5 | 0.002 | 0.004 | 0.004 | 0.006 | 0.009 | 0.004 | 0.006 | –
6 | B6 | – | > 2.5 | > 2.5 | 0.182 | > 2.5 | 0.269 | > 2.5 | 0.01 | 0.022 | > 2.5 | 0.014 | 0.021 | –
